Reference: US20230312684A1 (PINETREE THERAPEUTICS, published 2023)

Columns and labels:
[1] = biological target: RSV-F (amino acids 1-529), (Extracellular Domain) protein (His tag), ABIN2006856 (respiratory syncytial virus) (UniProt P03420); experiment: ELISA, RSV F coated, anti-human IgG-HRP
[2] = biological target: SARS-CoV-2 (antigen of the ELISA of Example 17; protein not specified) (SARS-CoV-2); experiment: ELISA by the method of Example 15, SARS-CoV-2 antigen

| Substance | EC50 [1] [nM] | EC50 [2] [nM] |
| --- | --- | --- |
| SEQ ID NO: 128, b1b2-Fc (NRP1, K358E, K373E, R513E, K514E, K516E) (Fc fusion) | 42.5 |  |
| SEQ ID NO: 139, b1b2-b1b2-Fc (NRP1, E319A, double b1b2) (Fc fusion) |  | 81.7 |
| SEQ ID NO: 204, b1b2-Fc-ACE2 (NRP1, K358E, K373E, R513E, K514E, K516E) (Fc fusion) | 91.5 |  |
